Measurements: patent publication US7977317B2, “Compositions and methods for modulating blood-brain barrier transport” (Raptor Pharmaceutical Inc., priority 2001, dated 2011)
Like-named read-outs stand apart in the source and are kept apart here.

B1: lactoferrin: lactoferrin (Lf), LRP ligand used as competitor (protein, UniProt P02788 20-710, looked up)
Lactotransferrin: GRRRSVQWCAVSQPEATKCFQWQRNMRKVRGPPVSCIKRDSPIQCIQAIAENRADAVTLDGGFIYEAGLAPYKLRPVAAEVYGTERQPRTHYYAVAVVKKGGSFQLNELQGLKSCHTGLRRTAGWNVPIGTLRPFLNWTGPPEPIEAAVARFFSASCVPGADKGQFPNLCRLCAGTGENKCAFSSQEPYFSYSGAFKCLRDGAGDVAFIRESTVFEDLSDEAERDEYELLCPDNTRKPVDKFKDCHLARVPSHAVVARSVNGKEDAIWNLLRQAQEKFGKDKSPKFQLFGSPSGQKDLLFKDSAIGFSRVPPRIDSGLYLGSGYFTAIQNLRKSEEEVAARRARVVWCAVGEQELRKCNQWSGLSEGSVTCSSASTTEDCIALVLKGEADAMSLDGGYVYTAGKCGLVPVLAENYKSQQSSDPDPNCVDRPVEGYLAVAVVRRSDTSLTWNSVKGKKSCHTAVDRTAGWNIPMGLLFNQTGSCKFDEYFSQSCAPGSDPRSNLCALCIGDEQGENKCVPNSNERYYGYTGAFRCLAENAGDVAFVKDVTVLQNTDGNNNEAWAKDLKLADFALLCLDGKRKPVTEARSCHLAMAPNHAVVSRMDKVERLKQVLLHQQAKFGRNGSDCPDKFCLFQSETKNLLFNDNTECLARLHGKTTYEKYLGPQYVAGITNLKKCSTSPLLEACEFLRK
B2: p97: recombinant human melanotransferrin (p97), provided by Synapse Technologies (protein, UniProt P08582 20-709, looked up)
Melanotransferrin: GMEVRWCATSDPEQHKCGNMSEAFREAGIQPSLLCVRGTSADHCVQLIAAQEADAITLDGGAIYEAGKEHGLKPVVGEVYDQEVGTSYYAVAVVRRSSHVTIDTLKGVKSCHTGINRTVGWNVPVGYLVESGRLSVMGCDVLKAVSDYFGGSCVPGAGETSYSESLCRLCRGDSSGEGVCDKSPLERYYDYSGAFRCLAEGAGDVAFVKHSTVLENTDGKTLPSWGQALLSQDFELLCRDGSRADVTEWRQCHLARVPAHAVVVRADTDGGLIFRLLNEGQRLFSHEGSSFQMFSSEAYGQKDLLFKDSTSELVPIATQTYEAWLGHEYLHAMKGLLCDPNRLPPYLRWCVLSTPEIQKCGDMAVAFRRQRLKPEIQCVSAKSPQHCMERIQAEQVDAVTLSGEDIYTAGKTYGLVPAAGEHYAPEDSSNSYYVVAVVRRDSSHAFTLDELRGKRSCHAGFGSPAGWDVPVGALIQRGFIRPKDCDVLTAVSEFFNASCVPVNNPKNYPSSLCALCVGDEQGRNKCVGNSQERYYGYRGAFRCLVENAGDVAFVRHTTVFDNTNGHNSEPWAAELRSEDYELLCPNGARAEVSQFAACNLAQIPPHAVMVRPDTNIFTVYGLLDKAQDLFGDDHNKNGFKMFDSSNYHGQDLLFKDATVRAVPVGEKTTYRGWLGLDYVAALEGMSSQQC

Columns and labels:
BBCEC monolayers [1] = conditions: −saponin, cited from earlier work
[2] = Brain uptake one hour after i.v. injection; assay type: in vivo; conditions: mice, one hour after i.v. injection of [125I]-protein (FIG. 11a)
Experimental: FIG. 11 examines the accumulation and transcytosis of p97. FIG. 11a, of [^125I]-p97, [^125I]-BSA and [^125I]-holo-transferrin one hour after i.v. injection. The radioactivity in brain was compared between the three compounds. (n=3); FIG. 11b, Accumulation of p97 and transferrin into the mouse brain parenchyma. In situ brain perfusion was performed with human [^125I]-p97 or [^125I]-holo-transferrin at a final concentration of 10 nM via a catheter inserted in the right common carotid artery. The volume of distribution (VD) of [^125I]-proteins were obtained in the whole brain homogenate (white bars), in brain capillaries (solid bars) and in brain parenchyma (hatched bars) after isolation of the right hemisphere and capillary depletion. Results were obtained for p97 (n=10) and for holo-transferrin (n=6); FIG. 11c, Transcytosis of p97 across BBCEC monolayers. Transcytosis experiments were performed 37° C. (open circles) and 4° C. (closed circles) with BBCEC monolayers. […] Apical-to-basal and basal-to-apical transport of [^125I]-p97 (25 nM) was measured for 2 hrs at 37° C. At the end of the experiment, [^125I]-p97 was assessed in the lower or upper chambers of each well by TCA precipitation (n=4).
A. Brain uptake and in situ brain perfusion. […] The serum and brain samples were collected and the levels of radioactivity were measured. […]

mAb L235 = assay: BIAcore analysis of native and boiled p97 on immobilized mAb L235; assay type: physicochemical; conditions: in Ringer/Hepes solution, boiled 5 to 30 min (FIG. 13b)
Experimental: FIG. 13 illustrates the transcytosis and accumulation of p97 and transferrin in BBCEC monolayers. FIG. 13a, Transcytosis experiments were performed at 37° C. (solid bars) or 4° C. (white bars). [^125I]-p97 or bovine [^125I]-holo-transferrin (1 mg/ml) was added to the upper side of the cell-covered filter. At the end of the experiment, radiolabelled proteins were measured in the lower chamber of each well by TCA precipitation (n=4). Controls were also performed at 37° C. with denatured [^125I]-p97 or bovine [^125I]-holo-transferrin boiled for 30 min (grey bars) (n=2); FIG. 13b, Biospecific interaction analysis was performed with native or boiled p97 for the indicated times. MAb L235 (5 μg) was immobilized on a sensor chip (SM5) using standard procedures incorporating NHS, EDC and ethanolamine. Native and boiled p97 (5 to 30 min) diluted at 1 mg/ml in Ringer/Hepes was cooled and injected into the BIAcore. The surface plasmon resonance response obtained for native p97 and boiled p97 was plotted (in relative units (RU)) as a function of time; FIG. 13c, The accumulation of both proteins into BBEC cells were also measured. Briefly, after incubation at 37° C. (solid bars) or 4° C. […] Accumulation of both denatured proteins (grey bars) was also measured at 37° C. Filters were then removed, and the radioactivity associated with the cells was quantified (n=3). […]

BBCEC monolayers [3] = assay: Transcytosis of bovine [125I]-lactoferrin across BBCEC monolayers, inhibition by p97; assay type: cell-based; conditions: 200-fold molar excess of unlabelled p97, 37° C. (FIG. 16c)

| Molecule | Kd (BBCEC monolayers [1]; Site 1, published value) [nM] | Kd (BBCEC monolayers [1]; Site 2, published value) [nM] | Brain/serum ratio [2] | Resistance to heat denaturation (mAb L235) | Inhibition of the transcytosis of bovine [125I]-lactoferrin (BBCEC monolayers [3]) |
| --- | --- | --- | --- | --- | --- |
| B1 | 35 | 1900 |  |  |  |
| B2 |  |  | 0.025 | resistant to heat denaturation | more than 75% |
